The values that follow come from patent publication US20160040196A1, “ENZYMATIC CONVERSION OF BOTH ENANTIOMERS OF 1,2-PROPANEDIOL TO PROPIONALDEHYDE” (University of Georgia Research Foundation, Inc., priority 2014, published 2016).

One data set relates to RiDD. The experiment in a line: Hydrogen-driven conversion in a cell-free reactor (proof of concept, FIG. 2). The data set is classed as biochemical, Roseburia inulinivorans. The following applies: 10% (v/v) 1,2-propanediol, 1 atm hydrogen. How it is done: In the simplest embodiment the “cell free reactor” would include only “catalytic” amounts of the enzymes described herein. Specifically, a catalytic amount is one molecule and anything greater than one enzyme molecule. In the data shown in FIG. 2 of this disclosure the cell free reactor includes the following; 10 μM of RiDD, 100 μM yeast alcohol dehydrogenase (YADH), and 200 μM of the soluble hydrogenase from Ralstonia metallidurans (formally Alcaligenes eutrophus). The reaction was carried out under strictly anaerobic conditions (oxygen-free argon gas) and initiated by the addition of the reduced RiDD-AE (50 μM final) and S-adenosylmethionine (1 μM). 100% hydrogen gas was maintained in the head space of the reactor at 1 atm and the reaction also included 1 mM NADH, 20 mM TRIS pH 7.9, and 1% glycerol.
This experiment was performed in a 50 mL reactor with 20 mL liquid volume and the remaining headspace under 1 atm of oxygen-free hydrogen gas. Experimental conditions were as follows 20 mM Tris pH 7.9, 10% (v/v) 1,2-propanediol, 1% (v/v) glycerol 50 μM purified RiDD, 100 μM purified DhaT, 100 μM NAD+, and 100 μM purified H2ase. After a brief pre-incubation (20 min) period to insure strictly anaerobic conditions were achieved (less than 1 ppm O2), purified RiDD-AE in the reduced (formally [4Fe-4S]′) form was added to a final concentration of 50 μM to initiate the reaction. […]

The next data set concerns C[C@H](O)CO. The experiment in a line: purified protein, by the assay type.
A further data set concerns OCC(O)CO. The experiment in a line: purified protein, by the assay type.
Substrate in data set [1]: C[C@@H](O)CO
The experiment in a line: Coupled enzyme assay for the RiDD (NADH-dependent reduction of propionaldehyde by YADH). Format: biochemical, Roseburia inulinivorans. The following applies: other: substrate of RiDD; Michaelis-Menten fit, FIG. 7. An excerpt:
(§1) FIG. 5A depicts a chemical pathway describing how the conversion of glycerol, by an activated glycerol dehydratase can be easily monitored using purified DhaT and following the NADH-dependent reduction of 3-hydroxypropionaldehyde to 1,3-propanediol. Similarly, FIG. 5B depicts a chemical pathway for how the conversion of 1,2-propanediol, by an activated diol-dehydratase can be monitored by following the NADH-dependent reduction of propionaldehyde by YADH.
(§2) A coupled enzyme assay for the CbGD and the RiDD was performed as previously described^5 with minor modifications. Where indicated, varying amounts of the substrate (specifically, glycerol, R-1,2-propanediol, or S-1,2-propanediol) were added from pure stock solutions purchased through Sigma Chemical Company™ in some cases the stocks were diluted with ddH2O in order to allow for accurate measurement of the substrate at the lower concentrations. In addition, when glycerol was used as the substrate for the CbGD, the enzyme YqhD was included in the assay in place of yeast alcohol dehydrogenase (YADH) and […]. YqhD is an aldehyde reductase capable of the NADPH-dependent reduction of several aldehydes, including 3-hydroxypropionaldehyde and was overexpressed and purified from E. coli as previously described^9.

Substrate in data set [2]: C[C@H](O)CO
Described as above. Format: biochemical, Roseburia inulinivorans. The following applies: other: substrate of RiDD; Michaelis-Menten fit, FIG. 7.
Excerpt: as §1, §2

One may read the Km as the concentration of substrate that gives half-maximal velocity.

As to `CC(O)CO` (racemic) [1,2-propanediol, propane-1,2-diol], in the data set on RiDD (after 6 hours, 1% glycerol), the “propanol titer from conversion of 1,2-propanediol” value is ~14 g/L.

With “C. butyricum glycerol dehydratase (CbGD) (Clostridium butyricum)”, the values for the Km in the data set with C[C@H](O)CO and with OCC(O)CO were 800 µM and 200 µM, respectively.

With `OCC(O)CO` [glycerol, propane-1,2,3-triol], in the data set with RiDD (1% (v/v) glycerol, FIG. 2), the “concentration of glycerol over the reaction” value is on record as “remained unchanged”.

B1: B12-independent diol dehydratase from R. inulinivorans (RiDD) (Roseburia inulinivorans) (protein)
chain: MGNYDSTPIAKSDRIKRLVDHLYAKMPEIEAARAELITESFKATEGQPVVMRKARAFEHILKNLPIIIRPEELIVGSTTIAPRGCQTYPEFSYEWLEAEFETVETRSADPFYISEETKKRLLAADAYWKGKTTSELATSYMAPETLRAMKHNFFTPGNYFYNGVGHVTVQYETVLAIGLNGVKEKVRKEMENCHFGDADYSTKMCFLESILISCDAVITYANRYAKMAEEMAEKETDAARRQELLTIARVCKNVPEFPAESFQEACQSFWFIQQVLQIESSGHSISPGRFDQYMYPYYEKDLKEGSLTREYAQELIDCIWVKLNDLNKCRDAASAEGFAGYSLFQNLIVGGQTVQGRDATNDLSFMCITASEHVFLPMPSLSIRVWHGSSKALLMRAAELTRTGIGLPAYYNDEVIIPALVHRGATMDEARNYNIIGCVEPQVPGKTDGWHDAAFFNMCRPLEMVFSNGYDNGEIASIQTGNVESFQSFDEFMEAYRKQMLYNIELMVNADNAIDYAHAKLAPLPFESCLVDDCIKRGMSAQEGGAIYNFTGPQGFGIANVADSLYTIKKLVFEEKRITMGELKKALEMNYGKGLDATTAGDIAMQVAKGLKDAGQEVGPDVIANTIRQVLEMELPEDVRKRYEEIHEMILELPKYGNDIDEVDELAREAAYFYTRPLETFKNPRGGMYQAGLYPVSANVPLGAQTGATPDGRLAHTPVADGVGPTSGFDISGPTASCNSVAKLDHAIASNGTLFNMKMHPTAMAGEKGLESFISLIRGYFDQQGMHMQFNVVDRATLLDAQAHPEKYSGLIVRVAGYSALFTTLSKSLQDDIIKRTEQADNR
B1: the Michaelis-Menten constant (Km) was found to be 800 µM in data set [1] and 500 µM in data set [2].
